From US20210393690A1 (JUNO THERAPEUTICS, published 2021) come the findings set out here.

In general, Kd refers to the equilibrium constant for the complex coming apart. The term EC50 (read off the curve) denotes the concentration giving half of the maximal effect.

In experiment [1] the target is T1, human BCMA peptide 30SNTPPLTCQR39 (human).
T1 construct: Peptide of the CLIPS array; could be recognized in a linear form
T1 peptide: SNTPPLTCQR
As to the kind of experiment: CLIPS peptide array ELISA. As to the method: (§1) Epitopes recognized, e.g., specifically bound to, by exemplary anti-BCMA scFv clones (BCMA-1, BCMA-5, BCMA-9, BCMA-23, BCMA-25, BCMA-26, BCMA-52 and BCMA-55 anti-BCMA scFvs), were assessed using full discontinuous epitope mapping by Chemical Linkage of Peptides onto Scaffolds (CLIPS; Pepscan Presto BV, Lelystad, The Netherlands; see, e.g., Timmerman et al., (2007) J. Mol. Recognit. 20: 283-329). Mapping was carried out using anti-BCMA scFv clones, such as those fused with mouse Fc (scFv-mFc).
(§2) Linear and conformational peptide libraries of amino acid residues 1-54 of human BCMA (set forth as amino acid residues 1-54 of SEQ ID NO:164) were generated based on a combinatorial matrix design. Linear peptides and structural mimetics including single loop, α-helix, β-turn, combinatorial and linear disulfide bridge mimics, and discontinuous epitope mimics were used, along with positive and negative control peptides, on an amino-functionalized solid support.
(§3) Affinities for binding to the peptides in the epitope library were determined using ELISA. The peptide arrays were incubated with a solution containing the scFv overnight at 4° C. Affinity information was used in iterative screens to define the sequence and conformation of epitopes. Heat maps of affinity information for two or more loops were generated.
(ELISA stands for enzyme-linked immunosorbent assay.)

Experiment [2] deals with T2, human BCMA amino acid residues 1-54 (linear and conformational CLIPS peptide libraries) (human).
T2 construct: Not one polypeptide in the assay: arrays of linear peptides and structural mimetics that cover residues 1-54
T2 chain: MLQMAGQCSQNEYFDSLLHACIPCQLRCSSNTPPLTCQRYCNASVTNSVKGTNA
As to the kind of experiment: CLIPS peptide array ELISA. Here is the method: as §1, §2, §3

Experiment [3] has as its target T3, recombinant human BCMA-hFc (soluble human BCMA fused at its C-terminus to an Fc region of IgG) (human, UniProt Q02223 1-54, limits assumed, biotinylated in the KinExA experiment of p-1044 (site not stated)).
T3 construct: also called rhBCMA hFc; BCMA-Fc; not shown: Fc region of IgG (hFc)
T3 sequence (looked up): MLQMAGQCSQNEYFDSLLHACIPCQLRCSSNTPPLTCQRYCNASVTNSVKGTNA
The experiment in a line: Biacore-based assay; scFv-Fc and recombinant human BCMA fusion protein; scFv-Fc fusion, Biacore-based assay. A general note: SPR reads the build-up and loss of mass on a sensor chip optically.

The target in experiment [4] is T4, cynoBCMA coated on 96-well flat-bottom plates (cynomolgus monkey). The experiment in a line: cell-based or functional assay.
T4 sequence (chain, as listed by the source): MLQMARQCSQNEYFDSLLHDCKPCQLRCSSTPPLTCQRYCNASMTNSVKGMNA
The target of experiment [5] is T3, recombinant human BCMA-hFc (soluble …). As to the kind of experiment: cell-based or functional assay.
Experiment [6] concerns the target T4, cynoBCMA coated on 96-well flat-bottom …. The experiment in a line: cell-based or functional assay. The source holds these as a separate data set.
The target in experiment [7] is T3, recombinant human BCMA-hFc (soluble …). As to the kind of experiment: kinetics exclusion assay; CAR expressed in a Jurkat T cell line, soluble rhBCMA hFc; CAR on Jurkat cells, kinetics exclusion assay.
Experiment [8] has the same target. The experiment in a line: KinExA kinetic exclusion analysis; serially diluted CAR-expressing Jurkat cells equilibrated with 20 nM or 1 nM biotinylated rhBCMA hFc. As to the method: In a further experiment, Jurkat cells were transduced with a polynucleotide encoding a CAR with a BCMA-55-derived scFv binding domain and were cultured to a density of ˜2×10⁶. The cells were harvested and spun at 1500 g for 15 minutes at 4° C. The cell pellet was washed and cells were resuspended and serially diluted in 20 nM or 1 nM biotinylated rhBCMA hFc (also referred to in this assay as the constant binding partner (CBP). After equilibration, cells were spun down and supernatants were harvested for KinExa kinetic exclusion analysis. Briefly, supernatants from equilibrated BCMA-55-LS CAR O/SSE-expressing Jurkat cells containing rhBCMA hFc were flowed over a streptavidin bead flow cell to capture free biotinylated rhBCMA hFc. The rhBCMA was then detected using a secondary anti-hBCMA antibody that was fluorescently labelled. The […] of the detected rhBCMA hFc was recorded for each sample, and plotted against the number of cells in each dilution (Darling (2004) Assay Drug. Dev., 2:647-657).
(Kinetic exclusion samples the free partner from a solution-phase mixture.)

Where two headings read alike, the source gives them in different places.

B1: BCMA-23 anti-BCMA scFv (scFv)
scFv: EVQLVESGGGLVKPGGSLRLSCAASGFTFSDYYMSWIRQAPGKGLEWVSYISSSGSTIYYADSVKGRFTISRDNAKNSLYLQMNSLRAEDTAVYYCAKVDGDYTEDYWGQGTLVTVSSGGGGSGGGGSGGGGSQSALTQPASVSGSPGQSITISCTGSSSDVGKYNLVSWYQQPPGKAPKLIIYDVNKRPSGVSNRFSGSKSGNTATLTISGLQGDDEADYYCSSYGGSRSYVFGTGTKVTVL
In the case of B1, the binding result in experiment [1] is “binds”.

B2: BCMA-26 anti-BCMA scFv (scFv)
scFv: EVQLVESGGGLVKPGGSLRLSCAASGFTFSDYYMSWIRQAPGKGLEWVSYISSSGSTIYYADSVKGRFTISRDNAKNSLYLQMNSLRAEDTAVYYCAKVDGPPSFDIWGQGTMVTVSSGGGGSGGGGSGGGGSSYVLTQPPSVSVAPGQTARITCGANNIGSKSVHWYQQKPGQAPMLVVYDDDDRPSGIPERFSGSNSGNTATLTISGVEAGDEADYFCHLWDRSRDHYVFGTGTKLTVL
Turning to B2, in experiment [2], the binding result was “binds”.

B3: BCMA-55-scFv-mFc (Fc fusion, not shown: a dimerising Fc or GST)
chain: QSALTQPASVSASPGQSIAISCTGTSSDVGWYQQHPGKAPKLMIYEDSKRPSGVSNRFSGSKSGNTASLTISGLQAEDEADYYCSSNTRSSTLVFGGGTKLTVLGSRGGGGSGGGGSGGGGSLEMAEVQLVQSGAEMKKPGASLKLSCKASGYTFIDYYVYWMRQAPGQGLESMGWINPNSGGTNYAQKFQGRVTMTRDTSISTAYMELSRLRSDDTAMYYCARSQRDGYMDYWGQGTLVTVSS
As for B3, the binding result in experiment [2] is reported as “binds”.

B4: BCMA-55 scFv-Fc fusion protein (Fc fusion)
chain: QSALTQPASVSASPGQSIAISCTGTSSDVGWYQQHPGKAPKLMIYEDSKRPSGVSNRFSGSKSGNTASLTISGLQAEDEADYYCSSNTRSSTLVFGGGTKLTVLGSRGGGGSGGGGSGGGGSLEMAEVQLVQSGAEMKKPGASLKLSCKASGYTFIDYYVYWMRQAPGQGLESMGWINPNSGGTNYAQKFQGRVTMTRDTSISTAYMELSRLRSDDTAMYYCARSQRDGYMDYWGQGTLVTVSS
notes: Fc fusion protein containing the scFv portion of the BCMA-55 CAR; also called BCMA-55-Fc; not shown: Fc region
Regarding B4, the Kd in experiment [3] was ~10 nM.

B5: BCMA-25 anti-BCMA scFv (scFv)
scFv: EVQLVQSGGGLVQPGRSLRLSCTASGFTFGDYAMSWFRQAPGKGLEWVGFIRSKAYGGTTEYAASVKGRFTISRDDSKSIAYLQMNSLKTEDTAVYYCAAWSAPTDYWGQGTLVTVSSGGGGSGGGGSGGGGSDIQMTQSPAFLSASVGDRVTVTCRASQGISNYLAWYQQKPGNAPRLLIYSASTLQSGVPSRFRGTGYGTEFSLTIDSLQPEDFATYYCQQSYTSRQTFGPGTRLDIK
In the case of B5, the binding result in experiment [1] was “binds”.

B6: BCMA-52-scFv-mFc (Fc fusion, not shown: a dimerising Fc or GST)
chain: SYELTQPPSASGTPGQRVTMSCSGTSSNIGSHSVNWYQQLPGTAPKLLIYTNNQRPSGVPDRFSGSKSGTSASLAISGLQSEDEADYYCAAWDGSLNGLVFGGGTKLTVLGSRGGGGSGGGGSGGGGSLEMAEVQLVQSGAEVKKPGESLKISCKGSGYSFTSYWIGWVRQMPGKGLEWMGIIYPGDSDTRYSPSFQGHVTISADKSISTAYLQWSSLKASDTAMYYCARYSGSFDNWGQGTLVTVSS
In the case of B6, the binding result in experiment [2] is “binds”.

B7: BCMA-55-LS-O/SSE CAR (other)
chain: QSALTQPASVSASPGQSIAISCTGTSSDVGWYQQHPGKAPKLMIYEDSKRPSGVSNRFSGSKSGNTASLTISGLQAEDEADYYCSSNTRSSTLVFGGGTKLTVLGSRGGGGSGGGGSGGGGSLEMAEVQLVQSGAEMKKPGASLKLSCKASGYTFIDYYVYWMRQAPGQGLESMGWINPNSGGTNYAQKFQGRVTMTRDTSISTAYMELSRLRSDDTAMYYCARSQRDGYMDYWGQGTLVTVSSESKYGPPCPPCPAPPVAGPSVFLFPPKPKDTLMISRTPEVTCVVVDVSQEDPEVQFNWYVDGVEVHNAKTKPREEQFQSTYRVVSVLTVLHQDWLNGKEYKCKVSNKGLPSSIEKTISKAKGQPREPQVYTLPPSQEEMTKNQVSLTCLVKGFYPSDIAVEWESNGQPENNYKTTPPVLDSDGSFFLYSRLTVDKSRWQEGNVFSCSVMHEALHNHYTQKSLSLSLGKMFWVLVVVGGVLACYSLLVTVAFIIFWVKRGRKKLLYIFKQPFMRPVQTTQEEDGCSCRFPEEEEGGCELRVKFSRSADAPAYQQGQNQLYNELNLGRREEYDVLDKRRGRDPEMGGKPRRKNPQEGLYNELQKDKMAEAYSEIGMKGERRRGKGHDGLYQGLSTATKDTYDALHMQALPPR
notes: Chimeric antigen receptor on the surface of Jurkat cells, Jurkat Nur77 reporter cells or primary T cells; also called BCMA-55-LS CAR; BCMA-55-L CAR
With B7, the entries for the “EC50 (read off the curve)” value in experiment [4], in experiment [5] and in experiment [6] were ~0.9 µg/mL, ~0.2 µg/mL and ~1 µg/mL, respectively. Further, the results for the Kd in experiment [7] and in experiment [8] were ~1 nM and ~1.46 nM, respectively.
